Target: T1, His6-PhoP (Pseudomonas aeruginosa PAO1?) (UniProt Q9I4F9)
T1 sequence: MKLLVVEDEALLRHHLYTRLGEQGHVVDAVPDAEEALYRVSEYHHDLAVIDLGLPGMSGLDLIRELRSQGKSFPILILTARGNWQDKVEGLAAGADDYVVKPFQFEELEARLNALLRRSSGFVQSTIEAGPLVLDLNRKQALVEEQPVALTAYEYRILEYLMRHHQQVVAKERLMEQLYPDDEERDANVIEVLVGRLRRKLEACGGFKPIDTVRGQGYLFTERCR
Test: EMSA
Details: DIG Gel Shift Kit 2nd Generation (Roche) per manufacturer; 6% native polyacrylamide gel; buffer, salt, pH and temperature not stated

| Sequence | binding |
| --- | --- |
| GAGGATCCGTGAATGGCCGGATTATAGCCAAGTGGCCGTGGCAACGGCATAGGCCGCGGAAGCGCCGTGCGGCGCCCGCGGCTTCGGGCCCGGTCAGGACTCGCCGCGCTCGCGGGCGATGGCACGGTAGCCGATGTCCTTGCGGTAGAAGCAGCCGTTCCAGCGGATCTTCTCGGCCAGGCGATAGGCCTGTTGCTGGGCGGCGGACACGCTCTCGCCGATGGCGGTGGCACAGAGCACGCGGCCGCCTCGAGTC (double strand) [truncated retS promoter, 255 bp, lacking PhoP box] | no binding |
| GAGGATCCCAGGAGTGATATTAGCGATTCCCAGTGCTCCCGCAACCTGCCAGAAAACCCAGCGAAGCTTCTTCGGCAGCCATTTTAGAAAAATATATTCCTTTAATTTCAATAAGTTACTTAAATTCACCGAGCGTTTTTGGCAAACCTCCCGGGCATTTATCTACTTAGGCTCACACGCCGTGTAAGTTAATGCTTACAAGAGCAGACACAAAAAACCCGGCGGATCCTC (double strand) [rsmZ promoter, full length] | binds |

From paper PMC3156716
